T1: GST-DnaA (Borrelia burgdorferi, UniProt P33768 1-486)
T1 sequence: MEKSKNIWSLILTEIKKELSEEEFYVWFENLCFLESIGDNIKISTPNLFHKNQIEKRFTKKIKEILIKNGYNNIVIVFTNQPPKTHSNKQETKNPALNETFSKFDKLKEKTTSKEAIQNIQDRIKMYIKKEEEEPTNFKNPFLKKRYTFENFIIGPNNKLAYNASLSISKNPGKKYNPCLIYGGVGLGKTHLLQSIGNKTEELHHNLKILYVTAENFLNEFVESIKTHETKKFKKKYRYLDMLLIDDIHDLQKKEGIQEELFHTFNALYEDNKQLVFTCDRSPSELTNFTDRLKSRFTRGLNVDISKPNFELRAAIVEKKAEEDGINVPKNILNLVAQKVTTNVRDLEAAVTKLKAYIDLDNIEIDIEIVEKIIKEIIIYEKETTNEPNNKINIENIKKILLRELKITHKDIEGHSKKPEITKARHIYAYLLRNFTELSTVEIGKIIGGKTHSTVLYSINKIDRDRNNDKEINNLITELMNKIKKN

T2: EbfC (Borrelia burgdorferi, UniProt O51418 1-99)
T2 sequence: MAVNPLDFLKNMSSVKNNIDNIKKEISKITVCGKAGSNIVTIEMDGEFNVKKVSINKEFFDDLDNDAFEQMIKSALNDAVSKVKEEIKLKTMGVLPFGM

B1: Competitor 3 (C3) (dsDNA)
DNA 1: TTCATAAAATTCTTTTAAAGTAATAGCTCTGAGATATAAATATGT
DNA 2: ACATATTTATATCTCAGAGCTATTACTTTAAAAGAATTTTATGAA
B2: Competitor 6 (C6) (dsDNA)
DNA 1: TTTCAATTTTATTATATTTTTTATGTTTCATAAAATTCTTTTAAA
DNA 2: TTTAAAAGAATTTTATGAAACATAAAAAATATAATAAAATTGAAA
B3: probe 2, consensus EbfC motif (dsDNA)
DNA 1: GGATTTGTCTTTTTGTAACTTTCAATTTTA
DNA 2: TAAAATTGAAAGTTACAAAAAGACAAATCC
B4: Competitor 5 (C5) (dsDNA)
DNA 1: AAATGCAATGTTTTGCTTTATGTTAAGATATGGATTTGTCTTTTT
DNA 2: AAAAAGACAAATCCATATCTTAACATAAAGCAAAACATTGCATTT
B5: Competitor 2 (C2) (dsDNA)
DNA 1: GGATTTGTCTTTTTGTAACTTTCAATTTTATTATATTTTTTATGT
DNA 2: ACATAAAAAATATAATAAAATTGAAAGTTACAAAAAGACAAATCC

What was measured:
[1] = biological target: T1, GST-DnaA; assay: competition; ATP, Mg2+; 10x excess vs N1; 50 mM Tris-HCl (pH not stated), 50 mM KCl, 1 mM EDTA, 1 mM PMSF, 1 mM DTT, 0.01% Tween 20, 10% glycerol; room temperature 15 min; GST-DnaA reactions with 1 mM MgCl2 and 1 mM ATP or ADP; 100 nM DNA or 20 nM RNA probe; details: protein: recombinant; tags: N-terminal GST; blunt
[2] = biological target: T2, EbfC; assay: EMSA; 5-15 uM EbfC; two complexes; 50 mM Tris-HCl (pH not stated), 50 mM KCl, 1 mM EDTA, 1 mM PMSF, 1 mM DTT, 0.01% Tween 20, 10% glycerol; room temperature 15 min; GST-DnaA reactions with 1 mM MgCl2 and 1 mM ATP or ADP; 100 nM DNA or 20 nM RNA probe; details: protein: recombinant; tags: N-terminal 6xHis (pET200); chain copies: 2; label: 5' Alexa Fluor 647 (probe)
[3] = biological target: T2, EbfC; assay: competition; 50x excess vs N13; 50 mM Tris-HCl (pH not stated), 50 mM KCl, 1 mM EDTA, 1 mM PMSF, 1 mM DTT, 0.01% Tween 20, 10% glycerol; room temperature 15 min; GST-DnaA reactions with 1 mM MgCl2 and 1 mM ATP or ADP; 100 nM DNA or 20 nM RNA probe; details: protein: recombinant; tags: N-terminal 6xHis (pET200); chain copies: 2
[4] = biological target: T2, EbfC; assay: EMSA; poly(dI-dC) 2.5 ng/uL; 3.75-30 uM EbfC; 50 mM Tris-HCl (pH not stated), 50 mM KCl, 1 mM EDTA, 1 mM PMSF, 1 mM DTT, 0.01% Tween 20, 10% glycerol; room temperature 15 min; GST-DnaA reactions with 1 mM MgCl2 and 1 mM ATP or ADP; 100 nM DNA or 20 nM RNA probe; details: protein: recombinant; tags: N-terminal 6xHis (pET200); chain copies: 2; label: 5' IRDye800 on strand 1; blunt
[5] = biological target: T2, EbfC; assay: competition; 50x excess vs N13; only smaller complex eliminated; 50 mM Tris-HCl (pH not stated), 50 mM KCl, 1 mM EDTA, 1 mM PMSF, 1 mM DTT, 0.01% Tween 20, 10% glycerol; room temperature 15 min; GST-DnaA reactions with 1 mM MgCl2 and 1 mM ATP or ADP; 100 nM DNA or 20 nM RNA probe; details: protein: recombinant; tags: N-terminal 6xHis (pET200); chain copies: 2

| Binder | binding result [1] | also measured |
| --- | --- | --- |
| B1 | binds |  |
| B2 | no binding |  |
| GGAUUUGUCUUUUUGUAACUUUCAAUUUUA (ssRNA) [EbfC RNA, dnaX-ebfC 5' UTR 30-mer] |  | binding result [2]: binds |
| AGGCAAAAGGAUUUGCCAAAGUCAGAAAUU (ssRNA) [flaB RNA competitor] |  | binding result [3]: no binding |
| B3 |  | binding result [4]: binds |
| B4 | no binding |  |
| GGAUUUGUCUUUUUGUAACUUUCAAUUUUA (ssRNA) [unlabeled dnaX-ebfC RNA competitor] |  | binding result [5]: binds |
| B5 | binds |  |

— publication PMC9879097, “Borrelia burgdorferi DnaA and the Nucleoid-Associated Protein EbfC Coordinate Expression of the dnaX-ebfC Operon”
